Results published in article PMC11368712.

What was measured:
[1] = target: AgaBb1180 (Bifidobacterium bifidum JCM 1254); test: SEC
[2] = target: AgaBb1191 (α-galactosidase from Bifidobacterium bifidum JCM 1254, residues 23-1191, without the N-terminal T7-tag) (Bifidobacterium bifidum JCM 1254); test: SEC

Substance: AgaBb1180 (domain or fragment)
- stoichiometry N [1]: 2

Substance: AgaBb1191 (α-galactosidase from Bifidobacterium bifidum JCM 1254, residues 23-1191, without the N-terminal T7-tag) (domain or fragment)
- stoichiometry N [2]: 2
